Laboratory results: patent US20240261333A1, “NOVEL TARGETS FOR ENHANCING ANTI-TUMOR IMMUNITY” (THE BROAD INSTITUTE, INC., priority 2021, published 2024)

B1: SLC25A5 (protein)
chain: TDAAVSFAKDFLAGGVAAAISKTAVAPIERVKLLLQVQHASKQITADKQYKGIIDCVVRIPKEQGVLSFWRGNLANVIRYFPTQALNFAFKDKYKQIFLGGVDKRTQFWLYFAGNLASGGAAGATSLCFVYPLDFARTRLAADVGKAGAEREFRGLGDCLVKIYKSDGIKGLYQGFNVSVQGIIIYRAAYFGIYDTAKGMLPDPKNTHIVISWMIAQTVTAVAGLTSYPFDTVRRRMMMQSGRKGTDIMYTGTLDCWRKIARDEGGKAFFKGAWSNVLRGMGGAFVLVLYDEIKKYT
B2: HSPD1 (protein)
chain: AKDVKFGADARALMLQGVDLLADAVAVTMGPKGRTVIIEQSWGSPKVTKDGVTVAKSIDLKDKYKNIGAKLVQDVANNTNEEAGDGTTTATVLARSIAKEGFEKISKGANPVEIRRGVMLAVDAVIAELKKQSKPVTTPEEIAQVATISANGDKEIGNIISDAMKKVGRKGVITVKDGKTLNDELEIIEGMKFDRGYISPYFINTSKGQKCEFQDAYVLLSEKKISSIQSIVPALEIANAHRKPLVIIAEDVDGEALSTLVLNRLKVGLQVVAVKAPGFGDNRKNQLKDMAIATGGAVFGEEGLTLNLEDVQPHDLGKVGEVIVTKDDAMLLKGKGDKAQIEKRIQEIIEQLDVTTSEYEKEKLNERLAKLSDGVAVLKVGGTSDVEVNEKKDRVTDALNATRAAVEEGIVLGGGCALLRCIPALDSLTPANEDQKIGIEIIKRTLKIPAMTIAKNAGVEGSLIVEKIMQSSSEVGYDAMAGDFVNMVEKGIIDPTKVVRTALLDAAGVASLLTTAEVVVTEIPKEEKDPGMGAMGGMGGGMGGGMF
B3: MARS (protein)
chain: MRLFVSDGVPGCLPVLAAAGRARGRAEVLISTVGPEDCVVPFLTRPKVPVLQLDSGNYLFSTSAICRYFFLLSGWEQDDLTNQWLEWEATELQPALSAALYYLVVQGKKGEDVLGSVRRALTHIDHSLSRQNCPFLAGETESLADIVLWGALYPLLQDPAYLPEELSALHSWFQTLSTQEPCQRAAETVLKQQGVLALRPYLQKQPQPSPAEGRAVTNEPEEEELATLSEEEIAMAVTAWEKGLESLPPLRPQQNPVLPVAGERNVLITSALPYVNNVPHLGNIIGCVLSADVFARYSRLRQWNTLYLCGTDEYGTATETKALEEGLTPQEICDKYHIIHADIYRWFNISFDIFGRTTTPQQTKITQDIFQQLLKRGFVLQDTVEQLRCEHCARFLADRFVEGVCPFCGYEEARGDQCDKCGKLINAVELKKPQCKVCRSCPVVQSSQHLFLDLPKLEKRLEEWLGRTLPGSDWTPNAQFITRSWLRDGLKPRCITRDLKWGTPVPLEGFEDKVFYVWFDATIGYLSITANYTDQWERWWKNPEQVDLYQFMAKDNVPFHSLVFPCSALGAEDNYTLVSHLIATEYLNYEDGKFSKSRGVGVFGDMAQDTGIPADIWRFYLLYIRPEGQDSAFSWTDLLLKNNSELLNNLGNFINRAGMFVSKFFGGYVPEMVLTPDDQRLLAHVTLELQHYHQLLEKVRIRDALRSILTISRHGNQYIQVNEPWKRIKGSEADRQRAGTVTGLAVNIAALLSVMLQPYMPTVSATIQAQLQLPPPACSILLTNFLCTLPAGHQIGTVSPLFQKLENDQIESLRQRFGGGQAKTSPKPAVVETVTTAKPQQIQALMDEVTKQGNIVRELKAQKADKNEVAAEVAKLLDLKKQLAVAEGKPPEAPKGKKKK
B4: CCT7 (protein)
chain: MDKLIVDGRGKATISNDGATILKLLDVVHPAAKTLVDIAKSQDAEVGDGTTSVTLLAAEFLKQVKPYVEEGLHPQIIIRAFRTATQLAVNKIKEIAVTVKKADKVEQRKLLEKCAMTALSSKLISQQKAFFAKMVVDAVMMLDDLLQLKMIGIKKVQGGALEDSQLVAGVAFKKTFSYAGFEMQPKKYHNPKIALLNVELELKAEKDNAEIRVHTVEDYQAIVDAEWNILYDKLEKIHHSGAKVVLSKLPIGDVATQYFADRDMFCAGRVPEEDLKRTMMACGGSIQTSVNALSADVLGRCQVFEETQIGGERYNFFTGCPKAKTCTFILRGGAEQFMEETERSLHDAIMIVRRAIKNDSVVAGGGAIEMELSKYLRDYSRTIPGKQQLLIGAYAKALEIIPRQLCDNAGFDATNILNKLRARHAQGGTWYGVDINNEDIADNFEAFVWEPAMVRINALTAASEAACLIVSVDETIKNPRSTVDAPTAAGRGRGRGRPH
B5: MAGT1 (protein)
chain: QRKKEMVLSEKVSQLMEWTNKRPVIRMNGDKFRRLVKAPPRNYSVIVMFTALQLHRQCVVCKQADEEFQILANSWRYSSAFTNRIFFAMVDFDEGSDVFQMLNMNSAPTFINFPAKGKPKRGDTYELQVRGFSAEQIARWIADRTDVNIRVIRPPNYAGPLMLGLLLAVIGGLVYLRRSNMEFLFNKTGWAFAALCFVLAMTSGQMWNHIRGPPYAHKNPHTGHVNYIHGSSQAQFVAETHIVLLFNGGVTLGMVLLCEAATSDMDIGKRKIMCVAGIGLVVLFFSWMLSIFRSKYHGYPYSFLMS
B6: ARHGEF2 (protein, UniProt Q92974 1-986, looked up)
Rho guanine nucleotide …: MSRIESLTRARIDRSRELASKTREKEKMKEAKDARYTNGHLFTTISVSGMTMCYACNKSITAKEALICPTCNVTIHNRCKDTLANCTKVKQKQQKAALLKNNTALQSVSLRSKTTIRERPSSAIYPSDSFRQSLLGSRRGRSSLSLAKSVSTTNIAGHFNDESPLGLRRILSQSTDSLNMRNRTLSVESLIDEAEVIYSELMSDFEMDEKDFAADSWSLAVDSSFLQQHKKEVMKQQDVIYELIQTELHHVRTLKIMTRLFRTGMLEELHLEPGVVQGLFPCVDELSDIHTRFLSQLLERRRQALCPGSTRNFVIHRLGDLLISQFSGPSAEQMCKTYSEFCSRHSKALKLYKELYARDKRFQQFIRKVTRPAVLKRHGVQECILLVTQRITKYPLLISRILQHSHGIEEERQDLTTALGLVKELLSNVDEGIYQLEKGARLQEIYNRMDPRAQTPVPGKGPFGREELLRRKLIHDGCLLWKTATGRFKDVLVLLMTDVLVFLQEKDQKYIFPTLDKPSVVSLQNLIVRDIANQEKGMFLISAAPPEMYEVHTASRDDRSTWIRVIQQSVRTCPSREDFPLIETEDEAYLRRIKMELQQKDRALVELLREKVGLFAEMTHFQAEEDGGSGMALPTLPRGLFRSESLESPRGERLLQDAIREVEGLKDLLVGPGVELLLTPREPALPLEPDSGGNTSPGVTANGEARTFNGSIELCRADSDSSQRDRNGNQLRSPQEEALQRLVNLYGLLHGLQAAVAQQDTLMEARFPEGPERREKLCRANSRDGEAGRAGAAPVAPEKQATELALLQRQHALLQEELRRCRRLGEERATEAGSLEARLRESEQARALLEREAEEARRQLAALGQTEPLPAEAPWARRPVDPRRRSLPAGDALYLSFNPPQPSRGTDRLDLPVTTRSVHRNFEDRERQELGSPEERLQDSSDPDTGSEEEGSSRLSPPHSPRDFTRMQDIPEETESRDGEAVASES
B7: CD70 (protein)
chain: MPEEGSGCSVRRRPYGCVLRAALVPLVAGLVICLVVCIQRFAQAQQQLPLESLGWDVAELQLNHTGPQQDPRLYWQGGPALGRSFLHGPELDKGQLRIHRDGIYMVHIQVTLAICSSTTASRHHPTTLAVGICSPASRSISLLRLSFHQGCTIASQRLTPLARGDTLCTNLTGTLLPSRNTDETFFGVQWVRP
B8: MSN (protein)
chain: PKTISVRVTTMDAELEFAIQPNTTGKQLFDQVVKTIGLREVWFFGLQYQDTKGFSTWLKLNKKVTAQDVRKESPLLFKFRAKFYPEDVSEELIQDITQRLFFLQVKEGILNDDIYCPPETAVLLASYAVQSKYGDFNKEVHKSGYLAGDKLLPQRVLEQHKLNKDQWEERIQVWHEEHRGMLREDAVLEYLKIAQDLEMYGVNYFSIKNKKGSELWLGVDALGLNIYEQNDRLTPKIGFPWSEIRNISFNDKKFVIKPIDKKAPDFVFYAPRLRINKRILALCMGNHELYMRRRKPDTIEVQQMKAQAREEKHQKQMERAMLENEKKKREMAEKEKEKIEREKEELMERLKQIEEQTKKAQQELEEQTRRALELEQERKRAQSEAEKLAKERQEAEEAKEALLQASRDQKKTQEQLALEMAELTARISQLEMARQKKESEAVEWQQKAQMVQEDLEKTRAELKTAMSTPHVAEPAENEQDEQDENGAEASADLRADAMAKDRSEEERTTEAEKNERVQKHLKALTSELANARDESKKTANDMIHAENMRLGRDKYKTLRQIRQGNTKQRIDEFESM

Target: T1, B3GNT2 (Homo sapiens, UniProt Q9NY97)
T1 construct: The respective ORFs of candidate genes [CD274 (NM_014143), MCL1 (NM_021960), JUNB (NM_002229), and B3GNT2 (NM_006577)] were synthesized; expressed in transfected cells; host or cells: A375 melanoma cells (lentiviral ORF overexpression)
T1 sequence (Q9NY97 1-397): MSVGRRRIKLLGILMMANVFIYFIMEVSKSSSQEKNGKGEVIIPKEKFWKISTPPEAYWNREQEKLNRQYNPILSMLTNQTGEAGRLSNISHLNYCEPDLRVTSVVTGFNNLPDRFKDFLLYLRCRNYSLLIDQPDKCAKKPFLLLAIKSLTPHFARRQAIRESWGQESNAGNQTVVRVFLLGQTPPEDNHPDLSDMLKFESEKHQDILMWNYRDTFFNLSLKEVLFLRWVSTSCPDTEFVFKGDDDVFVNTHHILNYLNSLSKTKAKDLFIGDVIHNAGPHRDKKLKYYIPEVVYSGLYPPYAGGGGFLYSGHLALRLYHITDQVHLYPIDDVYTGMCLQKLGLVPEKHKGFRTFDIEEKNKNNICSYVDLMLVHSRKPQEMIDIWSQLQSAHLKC
Assay: Co-IP of FLAG-tagged B3GNT2 followed by mass spectrometry
Format: cell-based
Parameters: C-term IgG / C-term flag: unit not given here
Settings: Co-IP with FLAG antibody, C-terminally FLAG-tagged B3GNT2; mass spectrometry count, unit not given
Method in brief: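 Co-purifying proteins were identified by fractionated nano-LC–MS/MS on an Orbitrap Elite, run data-dependent. Beforehand, lysates in 1% Triton X-100/HEPES buffer were incubated overnight at 4° C with anti-FLAG or […] and pulled down on Protein A/G magnetic beads for 4 h. Duplicate biological replicates.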

Molecule | C-term flag
B1 | 30
B2 | 6
B3 | 0
B4 | 2
B5 | 2
B6 | 2
B7 | 2
B8 | 4

Same assay, conditions: Co-IP with FLAG antibody, N-terminally FLAG-tagged B3GNT2; mass spectrometry count, unit not given

Molecule | N-term FLAG
B1 | 19
B2 | 10
B3 | 2
B4 | 0
B5 | 0
B6 | 0
B7 | 0
B8 | 3

Same assay, conditions: Co-IP with IgG control antibody, C-terminally FLAG-tagged B3GNT2; mass spectrometry count, unit not given

Molecule | C-term IgG
B1 | 3
B2 | 2
B3 | 0
B4 | 0
B5 | 0
B6 | 0
B7 | 0
B8 | 0

Same assay, conditions: Co-IP with IgG control antibody, N-terminally FLAG-tagged B3GNT2; mass spectrometry count, unit not given

Molecule | N-term IgG
B1 | 6
B2 | 0
B3 | 0
B4 | 0
B5 | 0
B6 | 0
B7 | 0
B8 | 0
